This assay addresses T1, human Receptor Activator for Nuclear Factor kappa B Ligand (human, UniProt O14788 143-317, limits assumed).
T1 construct: also called hRANKL; RANKL
T1 sequence (looked up): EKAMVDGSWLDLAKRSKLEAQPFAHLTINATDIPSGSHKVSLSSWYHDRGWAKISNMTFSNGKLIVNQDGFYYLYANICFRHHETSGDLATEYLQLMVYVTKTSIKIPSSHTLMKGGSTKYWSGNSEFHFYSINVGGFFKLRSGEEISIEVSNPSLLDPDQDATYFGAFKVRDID
Put plainly: competition ELISA: fixed concentration of OX40L01E07 pre-incubated with a concentration series of the competitor, then added to biotinylated hOX40L captured on neutravidin; OD450nm. The protocol: The binding of OX40L blocking Nanobodies to other TNF family members was tested in a competition ELISA.
Detection was done using sTMB (SDT Reagents, Baesweiler, Germany), the reaction was stopped with 1M HCl and absorbance was determined at 450 nm.

The record followed here is patent US20150218281A1 (Ablynx, published 2015).

B1: OX40L01E07 (VHH)
VHH: EVQLVESGGGLVQAGGSLRLSCAASGRTFSSIYAKGWFRQAPGKEREFVAAISRSGRSTSYADSVKGRFTISRDNAKNTVYLQMNSLKPEDTAVYYCAAVGGATTVTASEWDYWGLGTQVTVSS
notes: monovalent Nanobody from E. coli; not shown: C-terminal c-myc and His6 tag
As to B1, the binding result is “no binding”.
